Results reported in article PMC7898697.
pKd: −log10 of the molar value.

How the values were obtained:
Assay in all cases: BLI
[1] = target: triazole-linked ^triazole42Ub^ADPr (4), biotinylated (UniProt P0CG48)
[2] = target: triazole-linked ^triazole42Ub^Pr (6), biotinylated (UniProt P0CG48)
[3] = target: triazole-linked ^triazole42Ub^me-ADPr (5), biotinylated (UniProt P0CG48)
[4] = target: triazole-linked ^triazole72Ub^ADPr, biotinylated (UniProt P0CG48)
[5] = target: unmodified ubiquitin, biotinylated (biotin-Ub) (UniProt P0CG48)
[6] = target: natively linked ^Arg42Ub^ADPr, biotinylated (UniProt P0CG48)

Substance	pKd [1]	fold reduction of affinity against 4 and 5 [2]	pKd [3]	pKd [4]	fold reduction of affinity against 4 and 5 [5]	pKd [6]	pKd [5]
DupA-H67A lacking the GST tag (from UniProt Q5ZTK7 1-301) (enzyme)	5.66	> 15 fold	5.92	5.03	> 15 fold		
glutathione S-transferase (GST)-tagged DupA-H67A (from UniProt Q5ZTK7 1-301) (enzyme)	7.95		7.97			8.24	7.26
